The text below walks through data of patent CN114195890A (UNIV SHANGHAI TRAFFIC, dated 2022).

The term Kd denotes the equilibrium constant for the complex coming apart. High values mean lower affinity, low ones higher affinity. Broadly, the koff is the first-order rate constant of dissociation.

This experiment has as its target T1, 抗原K27-3Ub (化学合成的K27连接泛素链蛋白) (UniProt P0CG48 1-76, ubiquitin units joined through K27 linkages (K27 of one ubiquitin to the C-terminus of the next); biotinylated (biotin-K27-3Ub) in the ELISA).
T1 construct: Chemically synthesised K27-linked tri-ubiquitin provided by the Liu Lei group, Tsinghua University; also called biotin-K27-3Ub; K27泛素链
Nature of the experiment: SPR, Biacore 8K, antibody captured on Protein A chip, K27-3Ub as analyte, 1:1 fit. (Surface plasmon resonance follows binding to a sensor surface in real time, without labels.)

B1: 全长抗体蛋白IgG.zl1901 (antibody, V domains shown)
VH: EVQLVESGAEVKKPGASVKVSCKASGYTFTSYYMHWVRQAPGQGLEWMGIINPSGGSTSYAQKFQGRVTMTRDTSTSTVYMELSSLRSEDTAVYYCARGLRAELLHYYYGMDVWGQGTTVTVSS
VL: not shown
notes: also called 全长抗体IgG.zl1901
Consider B1, for which the Kd stood at 3.66 nM and the koff came to 0.00234 s⁻¹.
